Assay results reported in publication PMC8240853 (The Journal of Cell Biology, 2021).
Where “and” joins values, the source holds several entries; their conditions need not be identical. Identical values can stand only once. Blank lines part the entries; values can stand above or below the molecule they belong to.

Columns and labels:
[1] = biological target: WDR62 WD40 domain, 1-790 (UniProt O43379); experiment: streptavidin pull-down, GFP Western blot; conditions: reference: wild-type C3 fragment; sites T1053
[2] = biological target: microtubules of porcine brain tubulin (porcine) (UniProt P02550); experiment: binding to microtubules in vitro
[3] = biological target: WDR62-N2-GFP (human)
[4] = biological target: Strep-p80 WD (UniProt Q8BG40 1-315); experiment: pull-down
[5] = biological target: T1, Strep-TagBFP-TPX2 (human, UniProt Q9ULW0-1 1-747); experiment: recruitment to microtubules in vitro
T1 sequence: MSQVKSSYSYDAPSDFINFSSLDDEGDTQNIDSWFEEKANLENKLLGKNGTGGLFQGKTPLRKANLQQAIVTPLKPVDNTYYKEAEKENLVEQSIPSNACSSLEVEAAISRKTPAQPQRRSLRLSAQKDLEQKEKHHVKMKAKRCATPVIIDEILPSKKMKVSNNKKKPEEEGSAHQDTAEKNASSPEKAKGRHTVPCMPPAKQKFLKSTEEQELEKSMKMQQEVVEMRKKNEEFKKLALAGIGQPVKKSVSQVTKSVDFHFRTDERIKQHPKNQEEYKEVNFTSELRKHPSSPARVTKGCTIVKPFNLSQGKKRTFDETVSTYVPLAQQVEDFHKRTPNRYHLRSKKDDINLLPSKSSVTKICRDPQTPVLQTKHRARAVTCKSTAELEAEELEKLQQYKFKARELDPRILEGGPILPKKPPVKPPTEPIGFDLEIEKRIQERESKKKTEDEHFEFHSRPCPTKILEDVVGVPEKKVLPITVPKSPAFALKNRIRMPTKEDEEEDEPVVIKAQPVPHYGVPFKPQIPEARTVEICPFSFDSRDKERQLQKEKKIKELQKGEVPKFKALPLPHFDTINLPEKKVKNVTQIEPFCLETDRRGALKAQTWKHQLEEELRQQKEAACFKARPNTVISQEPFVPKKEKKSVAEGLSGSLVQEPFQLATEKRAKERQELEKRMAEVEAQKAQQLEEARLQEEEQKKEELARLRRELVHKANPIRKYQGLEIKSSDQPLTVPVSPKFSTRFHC

[6] = biological target: WDR62 FL WT-GFP-Strep (human, UniProt O43379-4 1-1523); experiment: recruitment to microtubules in vitro

Chain of Strep-p80 WD (Q8BG40 1-315): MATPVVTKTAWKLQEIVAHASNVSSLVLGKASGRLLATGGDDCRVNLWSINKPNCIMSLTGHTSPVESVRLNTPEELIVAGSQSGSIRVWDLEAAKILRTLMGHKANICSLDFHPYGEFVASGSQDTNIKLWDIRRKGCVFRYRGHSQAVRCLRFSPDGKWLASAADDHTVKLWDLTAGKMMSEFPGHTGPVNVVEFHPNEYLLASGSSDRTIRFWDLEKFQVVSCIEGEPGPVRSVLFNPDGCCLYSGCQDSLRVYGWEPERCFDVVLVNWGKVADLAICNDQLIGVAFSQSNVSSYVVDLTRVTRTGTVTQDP

Molecule: WDR62 C3, 1001-1523 (from UniProt O43379) C3 T1053A
binding against the reference [1]: lost

Molecule: WDR62 WD-GFP-Strep (from UniProt O43379-4 1-790) (domain or fragment)
fold affinity for GMPCPP-stabilized MTs against the FL protein [2]: 4 fold and 5 fold

Molecule: p60/TagBFP-p80 R615A (from UniProt O43379-4;Q8BG40) (complex)
breakage frequency of WDR62 N2-decorated curved MTs in live MRC5 cells [3]: 95%

Molecule: LAFHAKRSYQPHGRWAERAGQEPLKTILDAQDLDCYFTPMKPES (domain or fragment) [trxA-6xHis-WDR62 M1]
binding result [4]: binds

Next, values leading:

breakage frequency of WDR62 N2-decorated curved MTs in live MRC5 cells [3]: 95%
Molecule: p60/TagBFP-p80 (from UniProt O43379-4;Q8BG40) (complex)

binding result [5]: binds
B1: Strep-GFP–Aurora A (natural protein)
chain: MDRSKENCISGPVKATAPVGGPKRVLVTQQFPCQNPLPVNSGQAQRVLCPSNSSQRIPLQAQKLVSSHKPVQNQKQKQLQATSVPHPVSRPLNNTQKSKQPLPSAPENNPEEELASKQKNEESKKRQWALEDFEIGRPLGKGKFGNVYLAREKQSKFILALKVLFKAQLEKAGVEHQLRREVEIQSHLRHPNILRLYGYFHDATRVYLILEYAPLGTVYRELQKLSKFDEQRTATYITELANALSYCHSKRVIHRDIKPENLLLGSAGELKIADFGWSVHAPSSRRTTLCGTLDYLPPEMIEGRMHDEKVDLWSLGVLCYEFLVGKPPFEANTYQETYKRISRVEFTFPDFVTEGARDLISRLLKHNPSQRPMLREVLEHPWITANSSKPSNCQNKESASKQS

binding result [6]: binds
B2: TPX2/TagBFP–Aurora A complex (complex)
chain 1: MSQVKSSYSYDAPSDFINFSSLDDEGDTQNIDSWFEEKANLENKLLGKNGTGGLFQGKTPLRKANLQQAIVTPLKPVDNTYYKEAEKENLVEQSIPSNACSSLEVEAAISRKTPAQPQRRSLRLSAQKDLEQKEKHHVKMKAKRCATPVIIDEILPSKKMKVSNNKKKPEEEGSAHQDTAEKNASSPEKAKGRHTVPCMPPAKQKFLKSTEEQELEKSMKMQQEVVEMRKKNEEFKKLALAGIGQPVKKSVSQVTKSVDFHFRTDERIKQHPKNQEEYKEVNFTSELRKHPSSPARVTKGCTIVKPFNLSQGKKRTFDETVSTYVPLAQQVEDFHKRTPNRYHLRSKKDDINLLPSKSSVTKICRDPQTPVLQTKHRARAVTCKSTAELEAEELEKLQQYKFKARELDPRILEGGPILPKKPPVKPPTEPIGFDLEIEKRIQERESKKKTEDEHFEFHSRPCPTKILEDVVGVPEKKVLPITVPKSPAFALKNRIRMPTKEDEEEDEPVVIKAQPVPHYGVPFKPQIPEARTVEICPFSFDSRDKERQLQKEKKIKELQKGEVPKFKALPLPHFDTINLPEKKVKNVTQIEPFCLETDRRGALKAQTWKHQLEEELRQQKEAACFKARPNTVISQEPFVPKKEKKSVAEGLSGSLVQEPFQLATEKRAKERQELEKRMAEVEAQKAQQLEEARLQEEEQKKEELARLRRELVHKANPIRKYQGLEIKSSDQPLTVPVSPKFSTRFHC
chain 2: MDRSKENCISGPVKATAPVGGPKRVLVTQQFPCQNPLPVNSGQAQRVLCPSNSSQRIPLQAQKLVSSHKPVQNQKQKQLQATSVPHPVSRPLNNTQKSKQPLPSAPENNPEEELASKQKNEESKKRQWALEDFEIGRPLGKGKFGNVYLAREKQSKFILALKVLFKAQLEKAGVEHQLRREVEIQSHLRHPNILRLYGYFHDATRVYLILEYAPLGTVYRELQKLSKFDEQRTATYITELANALSYCHSKRVIHRDIKPENLLLGSAGELKIADFGWSVHAPSSRRTTLCGTLDYLPPEMIEGRMHDEKVDLWSLGVLCYEFLVGKPPFEANTYQETYKRISRVEFTFPDFVTEGARDLISRLLKHNPSQRPMLREVLEHPWITANSSKPSNCQNKESASKQS
